What was measured:
[1] = Zinc binding of insulin analogs (dialysis against zinc-free neutral buffer, HPLC and atomic absorption spectroscopy); format: physicochemical; settings: for Zinc binding: after extensive dialysis against zinc-free neutral buffer, pH 7.4; for zinc ions bound per hexamer: aqueous neutral solution, not removable by dialysis
Experimental: The dialyzates were then acidified and analyzed. The concentration of insulin was determined by reversed phase HPLC and that of the zinc by atomic absorption spectroscopy. The zinc values were corrected using the zinc content of a control batch which contained no insulin.

[2] = aqueous neutral solution, not removable by dialysis; cited from earlier work

Row | Substance | Zinc binding [1] | zinc ions bound per hexamer [1] | zinc ions complexed per hexamer via the His(B10) side chains [2]
1 | Asp(B3)-human insulin [Asp(B3)-insulin] | 4.2 mol of zinc/mol of hexamer | 4.2 zinc ions/hexamer | 
2 | human insulin [reference compound] | 2.5 mol of zinc/mol of hexamer |  | two
3 | His(B3)-human insulin [His(B3)-insulin] | 6.9 mol of zinc/mol of hexamer | approximately 7 zinc ions/hexamer | 
